Data as given in publication PMC3679265 (Biochimica et biophysica acta, 2013).

Columns and labels:
cross-linking = molecular target: the molecule itself; experiment: cross-linking
SEC = molecular target: the molecule itself; experiment: SEC

Protein	stoichiometry N (cross-linking)	stoichiometry N (SEC)
human galactose-1-phosphate uridylyltransferase p.F171S (enzyme, UniProt P07902 1-379, looked up) MSRSGTDPQQRQQASEADAAAATFRANDHQHIRYNPLQDEWVLVSAHRMKRPWQGQVEPQLLKTVPRHDPLNPLCPGAIRANGEVNPQYDSTFLFDNDFPALQPDAPSPGPSDHPLFQAKSARGVCKVMCFHPWSDVTLPLMSVPEIRAVVDAWASVTEELGAQYPWVQISENKGAMMGCSNPHPHCQVWASSFLPDIAQREERSQQAYKSQHGEPLLMEYSRQELLRKERLVLTSEHWLVLVPFWATWPYQTLLLPRRHVRRLPELTPAERDDLASIMKKLLTKYDNLFETSFPYSMGWHGAPTGSEAGANWNHWQLHAHYYPPLLRSATVRKFMVGYEMLAQAQRDLTPEQAAERLRALPEVHYHLGQKDRETATIA	2	–
human galactose-1-phosphate uridylyltransferase p.L74P (enzyme, UniProt P07902 1-379, looked up) MSRSGTDPQQRQQASEADAAAATFRANDHQHIRYNPLQDEWVLVSAHRMKRPWQGQVEPQLLKTVPRHDPLNPPCPGAIRANGEVNPQYDSTFLFDNDFPALQPDAPSPGPSDHPLFQAKSARGVCKVMCFHPWSDVTLPLMSVPEIRAVVDAWASVTEELGAQYPWVQIFENKGAMMGCSNPHPHCQVWASSFLPDIAQREERSQQAYKSQHGEPLLMEYSRQELLRKERLVLTSEHWLVLVPFWATWPYQTLLLPRRHVRRLPELTPAERDDLASIMKKLLTKYDNLFETSFPYSMGWHGAPTGSEAGANWNHWQLHAHYYPPLLRSATVRKFMVGYEMLAQAQRDLTPEQAAERLRALPEVHYHLGQKDRETATIA	–	2
human galactose-1-phosphate uridylyltransferase p.R333G (enzyme, UniProt P07902 1-379, looked up) MSRSGTDPQQRQQASEADAAAATFRANDHQHIRYNPLQDEWVLVSAHRMKRPWQGQVEPQLLKTVPRHDPLNPLCPGAIRANGEVNPQYDSTFLFDNDFPALQPDAPSPGPSDHPLFQAKSARGVCKVMCFHPWSDVTLPLMSVPEIRAVVDAWASVTEELGAQYPWVQIFENKGAMMGCSNPHPHCQVWASSFLPDIAQREERSQQAYKSQHGEPLLMEYSRQELLRKERLVLTSEHWLVLVPFWATWPYQTLLLPRRHVRRLPELTPAERDDLASIMKKLLTKYDNLFETSFPYSMGWHGAPTGSEAGANWNHWQLHAHYYPPLLRSATVGKFMVGYEMLAQAQRDLTPEQAAERLRALPEVHYHLGQKDRETATIA	2	–
human galactose-1-phosphate uridylyltransferase p.D28Y (enzyme, UniProt P07902 1-379, looked up) MSRSGTDPQQRQQASEADAAAATFRANYHQHIRYNPLQDEWVLVSAHRMKRPWQGQVEPQLLKTVPRHDPLNPLCPGAIRANGEVNPQYDSTFLFDNDFPALQPDAPSPGPSDHPLFQAKSARGVCKVMCFHPWSDVTLPLMSVPEIRAVVDAWASVTEELGAQYPWVQIFENKGAMMGCSNPHPHCQVWASSFLPDIAQREERSQQAYKSQHGEPLLMEYSRQELLRKERLVLTSEHWLVLVPFWATWPYQTLLLPRRHVRRLPELTPAERDDLASIMKKLLTKYDNLFETSFPYSMGWHGAPTGSEAGANWNHWQLHAHYYPPLLRSATVRKFMVGYEMLAQAQRDLTPEQAAERLRALPEVHYHLGQKDRETATIA	–	2
human galactose-1-phosphate uridylyltransferase p.F194L (enzyme, UniProt P07902 1-379, looked up) MSRSGTDPQQRQQASEADAAAATFRANDHQHIRYNPLQDEWVLVSAHRMKRPWQGQVEPQLLKTVPRHDPLNPLCPGAIRANGEVNPQYDSTFLFDNDFPALQPDAPSPGPSDHPLFQAKSARGVCKVMCFHPWSDVTLPLMSVPEIRAVVDAWASVTEELGAQYPWVQIFENKGAMMGCSNPHPHCQVWASSLLPDIAQREERSQQAYKSQHGEPLLMEYSRQELLRKERLVLTSEHWLVLVPFWATWPYQTLLLPRRHVRRLPELTPAERDDLASIMKKLLTKYDNLFETSFPYSMGWHGAPTGSEAGANWNHWQLHAHYYPPLLRSATVRKFMVGYEMLAQAQRDLTPEQAAERLRALPEVHYHLGQKDRETATIA	2	–
